Laboratory results: US9012420B2, “Aptamer for chymase, and use thereof” (Ribomic Inc., priority 2009, dated 2015)

T1: chymase (recombinant, manufactured by SIGMA) (Homo sapiens, UniProt P23946)
T1 construct: purchased SIGMA; host or cells: yeast
T1 sequence (P23946 22-247): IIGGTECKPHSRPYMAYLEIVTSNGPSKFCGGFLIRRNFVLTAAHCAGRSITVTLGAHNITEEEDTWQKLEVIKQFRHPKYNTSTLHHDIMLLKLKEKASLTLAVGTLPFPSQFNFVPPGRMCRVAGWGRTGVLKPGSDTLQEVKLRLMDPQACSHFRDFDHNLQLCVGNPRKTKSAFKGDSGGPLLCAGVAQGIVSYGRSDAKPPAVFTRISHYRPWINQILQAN

T2: native chymase (purified from human skin mast cell) (Homo sapiens, UniProt P23946)
T2 construct: the native is chymase purified from human skin mast cell; purchased Calbiochem; host or cells: human skin mast cell
T2 sequence (P23946 22-247): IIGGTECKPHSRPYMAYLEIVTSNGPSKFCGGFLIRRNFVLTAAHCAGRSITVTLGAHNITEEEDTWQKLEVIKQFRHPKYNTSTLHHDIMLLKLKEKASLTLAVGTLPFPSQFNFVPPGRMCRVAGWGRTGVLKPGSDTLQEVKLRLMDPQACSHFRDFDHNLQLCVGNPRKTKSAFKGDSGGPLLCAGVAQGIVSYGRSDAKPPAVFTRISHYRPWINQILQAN

T3: recombinant chymase (expressed by yeast) (Homo sapiens, UniProt P23946)
T3 construct: purchased SIGMA; host or cells: yeast
T3 sequence (P23946 22-247): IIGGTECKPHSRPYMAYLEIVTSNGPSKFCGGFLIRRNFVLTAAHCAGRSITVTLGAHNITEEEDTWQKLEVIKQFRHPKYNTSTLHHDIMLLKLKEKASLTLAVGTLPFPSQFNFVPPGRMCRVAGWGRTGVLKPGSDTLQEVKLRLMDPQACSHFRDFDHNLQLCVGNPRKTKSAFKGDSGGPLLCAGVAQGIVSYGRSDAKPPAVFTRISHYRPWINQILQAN

T4: chymase (Homo sapiens, UniProt P23946)
T4 sequence (P23946 22-247): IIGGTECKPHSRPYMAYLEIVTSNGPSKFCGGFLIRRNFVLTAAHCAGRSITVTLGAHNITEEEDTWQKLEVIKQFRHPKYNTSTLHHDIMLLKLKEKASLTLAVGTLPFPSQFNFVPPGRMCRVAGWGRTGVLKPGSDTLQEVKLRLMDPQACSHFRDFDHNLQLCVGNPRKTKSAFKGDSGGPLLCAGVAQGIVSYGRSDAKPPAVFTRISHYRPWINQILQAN

T5: chymase (recombinant) (UniProt P23946 P23946:22-247)
T5 sequence: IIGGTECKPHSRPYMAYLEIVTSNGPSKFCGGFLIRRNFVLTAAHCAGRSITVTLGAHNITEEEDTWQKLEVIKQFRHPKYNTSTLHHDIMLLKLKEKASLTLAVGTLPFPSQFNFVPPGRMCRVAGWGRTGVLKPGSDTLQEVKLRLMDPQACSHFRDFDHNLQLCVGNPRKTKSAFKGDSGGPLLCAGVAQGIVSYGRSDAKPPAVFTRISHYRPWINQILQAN


Key:
[1] = target: T1, chymase (recombinant, manufactured by SIGMA); assay: Chymase inhibitory activity using synthetic substrate Suc-Ala-Ala-Pro-Phe-MCA; type: biochemical
Summary of the method: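 Human recombinant chymase (16.7 nM or 1.67 nM final) preincubated 5 min at 37° C., then added to nucleic acid (0.0027–2 μM serial dilutions) and 100 μM substrate in solution C. AMC fluorescence (ex 380/em 460 nm) followed 5 or 30 min at 37° C.; slope gives initial velocity, inhibition versus no-inhibitor control yields IC50.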

[2] = target: T2, native chymase (purified from human skin mast cell); assay: Chymase inhibitory activity using angiotensin I as substrate, native chymase; type: biochemical; details: final 50 μM, chymase 0.2-0.5 nM, 37° C. 90 min, one measurement
Description: (§1) A second method of evaluation employs a native substrate. A useful native substrate for chymase is angiotensin I. Here, His-Leu, a peptide fragment released upon degradation of angiotensin I, is fluorescently derivatized, and the fluorescence intensity therefrom is quantified.
(§2) In the assay, an enzyme reaction is carried out in 50 μL of solution C. First, 0.3-0.75 ng of chymase (recombinant, manufactured by SIGMA; or native, manufactured by Calbiochem) is diluted in solution C to obtain 5 μL chymase solution. Each nucleic acid is prepared in solution C to obtain 25 μL solutions. 5 μL of each chymase dilution and 25 μL of each nucleic acid solution are mixed, and then the mixture is incubated at 37° C. for 5 minutes. […] The angiotensin I solution is added to the mixture of chymase and nucleic acid, and the enzyme reaction is initiated. After the reaction was allowed to proceed at 37° C. for 90 minutes, 25 μL of ice-cooled 30% trichloroacetic acid solution is added to terminate the reaction. The entire mixture is centrifuged at 4° C., 14000 rpm for 10 minutes, and 30 μL of the resulting supernatant is used for the subsequent reaction for fluorescent derivatization.
(§3) After 30 μL of the supernatant is added to a 96-well plate (Black, manufactured by Costar), 15 μL of 2% o-phthalaldehyde (manufactured by SIGMA) solution in methanol and 170 μL of 0.3M NaOH solution are mixed in each well, and the plate is allowed to stand at room temperature for 10 minutes. Subsequently, 25 μL of 3M HCl solution is added to terminate the reaction. The plate is set to the microplate reader SpectraMax190 (manufactured by Molecular Devices Corporation), and the fluorescence intensity is determined at an excitation wavelength of 355 nm and a fluorescence wavelength of 460 nm.
(§4) For control, samples are treated and analyzed in the same manner in two cases: use of SEQ ID NO: 58 (negative control) and use of chymostatin, a known chymotrypsin-like serine protease inhibitor (positive control). In both cases, fluorescence intensity obtained at 0 minute reaction time serves as a blank determination. Taking the fluorescence intensity detected with the addition of an equal volume of solution C, in place of each nucleic acid, in the chymase enzyme reaction as 100%, the inhibitory rate for each test substance is calculated, and the inhibitor concentration required to cause a 50% inhibition of the enzyme activity (IC50) is determined.
(§5) For further assessment of the inhibitory activity of the nucleic acid of the present invention, the enzyme activity of chymase was measured using angiotensin I, which is a native substrate for chymase, according to the following method. Angiotensin I is converted by chymase to angiotensin II, during which a peptide fragment His-Leu is released. Since the peptide His-Leu is fluorescently derivatized by o-phthalaldehyde, its fluorescence intensity can be quantitatively measured.
(§6) The total volume of solution for an enzyme reaction in the assay was set to 50 μL, and the reaction was performed in solution C buffer. First, 0.3-0.75 ng of chymase (recombinant, (manufactured by SIGMA) or native (manufactured by Calbiochem)) was diluted with solution C to give 5 μL thereof. Here, the recombinant is chymase expressed by yeast, and the native is chymase purified from human skin mast cell. The nucleic acid was serially diluted with solution C at a concentration of 0.0027-2 μM to give 25 μL thereof. The chymase solution (5 μL) and the nucleic acid solution (25 μL) were mixed, and the mixture was incubated at 37° C. for 5 min. On the other hand, […] angiotensin I (manufactured by PEPTIDE INSTITUTE, INC.) was prepared in solution C to give […] thereof, which was incubated at 37° C. for 5 min. The angiotensin I solution was added to a mixture of chymase and nucleic acid to start an enzyme reaction. The final chymase concentration of the reaction solution was 0.2-0.5 nM, and the final substrate concentration was 50 μM. […]

[3] = target: T3, recombinant chymase (expressed by yeast); assay: Chymase inhibitory activity using angiotensin I as substrate, recombinant chymase; type: biochemical; details: final 50 μM, chymase 0.2-0.5 nM, 37° C. 90 min, one measurement
Description: as §1, §2, §3, §4, §5, §6

chymase = target: T4, chymase; assay: Surface plasmon resonance (Biacore T100), aptamer immobilized on SA chip, chymase injected as analyte; type: binding; design: key: ++: a sequence that binds to chymase significantly more strongly than the negative control 30N; details: Table 2; same manner as Example 1, running buffer solution C; compared with 30N
Description: Binding strength is measured using Biacore T100 (manufactured by GE Healthcare). In a method of measurement, the aptamer is first immobilized onto a sensor chip, the amount immobilized being about 1000 RU. 20 μL of a chymase solution for analyte, prepared at 0.2 μM, is injected, and the binding of chymase to the aptamer is detected. An RNA comprising a random nucleotide sequence of 30 or 40 nucleotides is used as a negative control.
The binding activities against chymase of the nucleic acids shown by SEQ ID NO: 4-20 and 22-34 were determined by the surface plasmon resonance method using Biacore T100 (manufactured by GE Healthcare). The sensor chip used was the SA chip, which had streptavidin immobilized thereon. Bound thereto was about 1500 RU of a 16-nucleotide Poly dT with biotin bound to the 5′ end thereof. […] 20 μL of chymase for analyte, prepared at 0.2 μM, was injected. Solution A was used as a running buffer.
The binding activities against chymase of the nucleic acids shown by SEQ ID NO: 38-48 were evaluated by the surface plasmon resonance method. In the evaluations for SEQ ID NO: 38-48, measurements were taken in the same manner as Example 1. Solution C was used as a running buffer.

chymase (recombinant) = target: T5, chymase (recombinant); assay: inhibition; SPR ++; details: tags: SIGMA, expressed in yeast
Description: Here, Suc is a protecting succinyl group, and MCA is a 4-methylcoumaryl-7-amide group; upon cleavage of the C-terminal side of phenylalanine, AMC (7-amino-4-methyl-coumarine) is released. By detecting the fluorescence of this AMC, the enzyme activity of chymase can be determined. The assay was performed using a 96-well plate (F16 Black Maxisorp Fluoronunc, manufactured by Nunc), with a reaction mixture volume of 100 μL, in solution C as a buffer solution. First, each nucleic acid was serially diluted to 0.0027-2 μM concentrations in solution C to obtain 50 μL solutions. After 10 μL of the 1 mM substrate prepared in solution C was added thereto, the plate was set to the microplate reader SpectraMax190 (manufactured by Molecular Devices Corporation), and incubated at 37° C. for 5 minutes. Separately, 0.05 μg (or 0.005 μg) of chymase (recombinant, manufactured by SIGMA) was diluted in solution C to obtain a 40 μL chymase solution, and incubated at 37° C. for 5 minutes. The chymase solution was added to the mixture of the nucleic acid and substrate to initiate an enzyme reaction. The final chymase concentration in the reaction mixture was 16.7 nM (or 1.67 nM), the final substrate concentration being 100 μM. The plate containing the reaction mixture was set to the microplate reader SpectraMax190 (manufactured by Molecular Devices Corporation), and examined for time-dependent changes in the fluorescence intensity at 37° C. for 5 minutes (or 30 minutes) (excitation wavelength 380 nm, detection wavelength 460 nm). A linear approximation of the increase in the fluorescence of the AMC released from the substrate by chymase activity was generated, and its slope was taken as the initial velocity […]. For control, samples were treated and analyzed in the same manner in two cases: use of a 30N or 40N (a nucleotide of 30 or 40 consecutive bases represented by N; N is A, G, C or T) nucleic acid pool (negative control), and use of chymostatin, a known chymotrypsin-like serine protease inhibitor (positive control). Taking the initial reaction velocity without the nucleic acid and inhibitor (V_0) as a 100% enzyme activity, the inhibitory rate of each test substance was calculated using the following equation: […]
The inhibitory activity on chymase was measured in the same manner as in Example 3.

[4] = Table 3, substrate 100 μM, solution C, 37° C., mean value for 2 to 3 measurements

Molecule | IC50 [1, 4] [nM] | Binding activity as determined using Biacore (chymase) | other results
69 (AAAGGGUUAGAUAGAGUUAAAAACCC; listed as RNA, chemistry not given here) [compound 69] | – | – | IC50 ([1]; Table 7, same manner as Example 3, mean value of two measurements): 91 ± 19 nM; IC50 [2]: > 1000 nM; IC50 [3]: 628 nM
40 (nucleic acid, 2'-fluoro at CU, RNA at AG, backbone not given here) GGGAGCAGGAGAGAGGUCAGAUGAACGGAUAGAGCUAAGAGUUCGUCAGAGGGGCCUAUGCGUGCUAGUGUGA | 140 ± 85 | ++ | –
44 (nucleic acid, aptamer; 2'-fluoro at CU, RNA at AG, backbone not given here) GGGAGCAGGAGAGAGGUCAGAUGUUAGACCAAAGCAUAGGAGAUAGAGUUAAACCUAUGCGUGCUAGUGUGA | 49 ± 13 | ++ | –
42 (nucleic acid, aptamer; 2'-fluoro at CU, RNA at AG, backbone not given here) GGGAGCAGGAGAGAGGUCAGAUGCGUGAUCGUGCAAGGCGGAUAGAGUUAAGGCCUAUGCGUGCUAGUGUGA | 124 ± 26 | ++ | –
45 (nucleic acid, aptamer; 2'-fluoro at CU, RNA at AG, backbone not given here) GGGAGCAGGAGAGAGGUCAGAUGGACCACCGAUGGGCAAGAUAGAGUUAAAUGCCUAUGCGUGCUAGUGUGA | 74 ± 11 | ++ | –
43 (nucleic acid, aptamer; 2'-fluoro at CU, RNA at AG, backbone not given here) GGGAGCAGGAGAGAGGUCAGAUGAUGCCAAGAUAGAUUUAAAUGGCGUUUGGGCCUAUGCGUGCUAGUGUGA | 81 ± 50 | ++ | –
38 (nucleic acid, aptamer; 2'-fluoro at CU, RNA at AG, backbone not given here) GGGAGCAGGAGAGAGGUCAGAUGGAUAGAGUUAAGAUCUGGCUGGCGCAUUAGCCUAUGCGUGCUAGUGUGA | 50 ± 12 | ++ | –
48 (nucleic acid, aptamer; 2'-fluoro at CU, RNA at AG, backbone not given here) GGGAGCAGGAGAGAGGUCAGAUGUGAAGAUAGAGAUAAAUCACAUACAGUCGGCCUAUGCGUGCUAGUGUGA | 95 ± 18 | ++ | –
GGGUUAGAUAGAGUUAAAAACCC (ssRNA, 2'-F pyrimidines except U15 2'-OH) [56(16)] | – | – | IC50 (chymase (recombinant)): 58 nM
46 (nucleic acid, aptamer; 2'-fluoro at CU, RNA at AG, backbone not given here) GGGAGCAGGAGAGAGGUCAGAUGGGACAGAUAGAGUUAAAGUCCGUUACGUGGCCUAUGCGUGCUAGUGUGA | 38 ± 4 | ++ | –
GGGUUAGAUAGAGUUAAAAACCC (ssRNA, 2'-F pyrimidines except U9 2'-OH) [56(15)] | – | – | IC50 (chymase (recombinant)): 61 nM
39 (nucleic acid, aptamer; 2'-fluoro at CU, RNA at AG, backbone not given here) GGGAGCAGGAGAGAGGUCAGAUGGUUACGGAUAGAGUUAAGGUAACGGUACGGCCUAUGCGUGCUAGUGUGA | – | ++ | –
47 (nucleic acid, aptamer; 2'-fluoro at CU, RNA at AG, backbone not given here) GGGAGCAGGAGAGAGGUCAGAUGGUGAUAGAUAGAGUUAAAAUCGCUGAAUGGCCUAUGCGUGCUAGUGUGA | 58 ± 12 | ++ | –
